# Substitutions are numbered along the chain they refer to. Names and notes keep the numbering of the source.
# T1: SARA Smad-binding domain (amino acids 665–721) on the 3xFlag-thioredoxin scaffold (UniProt O95405 767-823)
# T1 construct: SARA, amino acids 665–721; cloned into the unique RsrII site of pCI-3xFLAG-Trx; also called SARA aa665–721; TrxSARA; source: HEK-293, transfected, in lysate
# T1 sequence (looked up): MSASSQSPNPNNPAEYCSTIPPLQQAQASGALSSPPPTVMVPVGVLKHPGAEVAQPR
# T2: Flag-Smad4, full length (UniProt Q13485 1-552)
# T2 construct: Smad4; plasmid pCMV5-Flag-Smad4 (from J. Massagué); also called Smad4 FL; source: HEK-293, transfected, in lysate
# T2 sequence (looked up): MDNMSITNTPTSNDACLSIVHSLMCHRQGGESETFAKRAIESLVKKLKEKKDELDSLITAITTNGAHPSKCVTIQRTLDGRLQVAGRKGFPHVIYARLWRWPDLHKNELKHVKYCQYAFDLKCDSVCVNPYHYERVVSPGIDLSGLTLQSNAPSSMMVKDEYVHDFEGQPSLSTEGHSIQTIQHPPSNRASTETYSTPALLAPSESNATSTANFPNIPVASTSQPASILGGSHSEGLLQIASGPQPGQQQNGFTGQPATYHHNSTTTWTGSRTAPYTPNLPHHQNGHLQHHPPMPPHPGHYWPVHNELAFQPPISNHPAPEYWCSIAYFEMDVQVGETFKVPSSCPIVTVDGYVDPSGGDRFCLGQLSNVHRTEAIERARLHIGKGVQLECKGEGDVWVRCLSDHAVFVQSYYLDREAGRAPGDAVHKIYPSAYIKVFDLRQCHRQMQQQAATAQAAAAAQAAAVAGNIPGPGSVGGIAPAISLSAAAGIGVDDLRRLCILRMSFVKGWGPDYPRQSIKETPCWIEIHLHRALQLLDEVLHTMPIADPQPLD
# T3: SIP1 Smad-binding domain (amino acids 315–487) on the 3xFlag-thioredoxin scaffold (UniProt Q9R0G7 315-487)
# T3 construct: SIP1, amino acids 315–487; amplified from pACT2-SIP1-315-487 (from D. Huylebroeck), which I recall as a mouse clone; cloned into the RsrII site of pCI-3xFLAG-Trx; also called Sip1 315–487; TrxSIP1; source: HEK-293, transfected, in lysate
# T3 sequence (looked up): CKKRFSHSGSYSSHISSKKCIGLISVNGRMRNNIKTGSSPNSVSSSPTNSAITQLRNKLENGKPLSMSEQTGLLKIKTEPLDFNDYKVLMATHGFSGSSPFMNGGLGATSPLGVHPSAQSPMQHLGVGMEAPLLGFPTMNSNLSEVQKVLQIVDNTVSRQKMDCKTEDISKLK
# B1: Renilla luciferase-Smad3 C338A (natural protein, UniProt P84022 1-425, looked up)
# chain: MSSILPFTPPIVKRLLGWKKGEQNGQEEKWCEKAVKSLVKKLKKTGQLDELEKAITTQNVNTKCITIPRSLDGRLQVSHRKGLPHVIYCRLWRWPDLHSHHELRAMELCEFAFNMKKDEVCVNPYHYQRVETPVLPPVLVPRHTEIPAEFPPLDDYSHSIPENTNFPAGIEPQSNIPETPPPGYLSEDGETSDHQMNHSMDAGSPNLSPNPMSPAHNNLDLQPVTYCEPAFWCSISYYELNQRVGETFHASQPSMTVDGFTDPSNSERFCLGLLSNVNRNAAVELTRRHIGRGVRLYYIGGEVFAECLSDSAIFVQSPNCNQRYGWHPATVCKIPPGANLKIFNNQEFAALLAQSVNQGFEAVYQLTRMCTIRMSFVKGWGAEYRRQTVTSTPCWIELHLNGPLQWLDKVLTQMGSPSIRCSSVS
# notes: Smad3; source: HEK-293, transfected together with constitutively active Alk5, in lysate
# B2: Renilla luciferase-Smad3 V356R (natural protein, UniProt P84022 1-425, looked up)
# chain: B1 chain with A338C, V356R
# notes: as for B1
# B3: Renilla luciferase-Smad3 L340A (natural protein, UniProt P84022 1-425, looked up)
# chain: B1 chain with A338C, L340A
# notes: as for B1
# B4: Renilla luciferase-Smad3 V224A (natural protein, UniProt P84022 1-425, looked up)
# chain: B1 chain with V224A, A338C
# notes: as for B1
# B5: Renilla luciferase-Smad3 K341A (natural protein, UniProt P84022 1-425, looked up)
# chain: B1 chain with A338C, K341A
# notes: as for B1
# B6: Renilla luciferase-Smad3 Y298A (natural protein, UniProt P84022 1-425, looked up)
# chain: B1 chain with Y298A, A338C
# notes: as for B1
# B7: Renilla luciferase-Smad3 W326A (natural protein, UniProt P84022 1-425, looked up)
# chain: B1 chain with W326A, A338C
# notes: as for B1
# B8: Renilla luciferase-Smad3 P335A/P336A (natural protein, UniProt P84022 1-425, looked up)
# chain: B1 chain with P335A, P336A, A338C
# notes: as for B1
# B9: Renilla luciferase-Smad3 W406A (natural protein, UniProt P84022 1-425, looked up)
# chain: B1 chain with A338C, W406A
# notes: as for B1
# B10: Renilla luciferase-Smad3 Q322A/Y324A (natural protein, UniProt P84022 1-425, looked up)
# chain: B1 chain with Q322A, Y324A, A338C
# notes: as for B1
# B11: Renilla luciferase-Smad3 E267A (natural protein, UniProt P84022 1-425, looked up)
# chain: B1 chain with E267A, A338C
# notes: as for B1
# B12: Renilla luciferase-Smad3 Y226A (natural protein, UniProt P84022 1-425, looked up)
# chain: B1 chain with Y226A, A338C
# notes: as for B1
# B13: Renilla luciferase-Smad3 S254A (natural protein, UniProt P84022 1-425, looked up)
# chain: B1 chain with S254A, A338C
# notes: as for B1
# B14: Renilla luciferase-Smad3 Y297A (natural protein, UniProt P84022 1-425, looked up)
# chain: B1 chain with Y297A, A338C
# notes: as for B1
# Target: T1, SARA Smad-binding domain (amino acids …)
# Assay: co-IP; LUMIER: Renilla luciferase-Smad3 and Flag-tagged partner co-expressed with constitutively active Alk5 in HEK-293; Flag protein captured from cleared lysate (TNE: 10 mM Tris-HCl pH 7.8, 150 mM NaCl, 1 mM EDTA, 1% Igepal CA-630) on anti-Flag 96-well plates, 2 h at 4 °C; co-precipitated Renilla luciferase activity, TrxGA background subtracted, percent of wild-type Smad3
# Settings: partners not purified
row,percent binding relative to wild-type Smad3,Binder
1,94%,B1
2,1%,B2
3,12%,B3
4,21%,B4
5,4%,B5
6,73%,B6
7,4%,B7
8,2%,B8
9,1%,B9
10,3%,B10
11,81%,B11
12,3%,B12
13,103%,B13

# Target: T2, Flag-Smad4, full length
# Assay: as above
# Settings: partners not purified
row,percent binding relative to wild-type Smad3,Binder
1,125%,B1
2,233%,B2
3,181%,B3
4,122%,B4
5,275%,B5
6,120%,B6
7,194%,B7
8,309%,B8
9,109%,B9
10,124%,B10
11,458%,B11
12,110%,B12
13,101%,B13

# Target: T4, Flag-Smad3, full length (UniProt P84022 1-425)
# T4 construct: Smad3; plasmid pCMV5-Flag-Smad3 (from J. Massagué); bait for Smad3-Smad3 association; also called Smad3 FL; source: HEK-293, transfected together with constitutively active Alk5, in lysate
# Assay: as above
# Settings: partners not purified
row,percent binding relative to wild-type Smad3,Binder
1,100%,B1
2,275%,B2
3,99%,B3
4,118%,B4
5,95%,B5
6,113%,B6
7,159%,B7
8,109%,B8
9,564%,B9
10,143%,B10
11,222%,B11
12,82%,B14
13,161%,B12
14,105%,B13

# Target: T5, Smurf2 Smad-binding domain (amino acids 252–330) on the Flag-thioredoxin scaffold (UniProt Q9HAU4 252-330)
# T5 construct: Smurf2, amino acids 252–330; also called Smurf2 aa252–330; TrxSmurf2; source: HEK-293, transfected, in lysate
# Assay: as above
# Settings: partners not purified
# T5 sequence (Q9HAU4 252-330): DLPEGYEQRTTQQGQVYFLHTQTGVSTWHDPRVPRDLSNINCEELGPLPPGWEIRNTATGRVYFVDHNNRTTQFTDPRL
row,percent binding relative to wild-type Smad3,Binder
1,153%,B1
2,468%,B2
3,259%,B3
4,320%,B4
5,130%,B5
6,144%,B6
7,653%,B7
8,255%,B8
9,1330%,B9
10,308%,B10
11,379%,B11
12,365%,B12
13,113%,B13

# Target: T3, SIP1 Smad-binding domain (amino acids …)
# Assay: as above
# Settings: partners not purified
row,percent binding relative to wild-type Smad3,Binder
1,44%,B1
2,7%,B2
3,159%,B3
4,339%,B4
5,66%,B5
6,33%,B6
7,319%,B7
8,123%,B8
9,15%,B9
10,162%,B10
11,88%,B11
12,80%,B14
13,7%,B12
14,128%,B13

# Source: article PMC3176292, “Mutations in Protein-Binding Hot-Spots on the Hub Protein Smad3 Differentially Affect Its Protein Interactions and Smad3-Regulated Gene Expression” (PLoS ONE, 2011)
